Measured values from US20170088624A1.

Molecular target: Full length human CD40 (huCD40) on cells (human) (UniProt P25942)
Assay: cell-based or functional assay

Chain of CP-870,893 (antibody) (VH): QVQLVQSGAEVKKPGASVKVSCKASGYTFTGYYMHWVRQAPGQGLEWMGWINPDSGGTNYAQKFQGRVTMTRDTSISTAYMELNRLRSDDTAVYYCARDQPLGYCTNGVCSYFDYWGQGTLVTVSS
Chain of CP-870,893 (antibody) (VL): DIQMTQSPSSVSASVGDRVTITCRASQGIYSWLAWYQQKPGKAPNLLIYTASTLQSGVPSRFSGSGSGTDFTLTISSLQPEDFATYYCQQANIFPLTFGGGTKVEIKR
Chain of Full length human CD40 (huCD40) on cells (human) (P25942 21-277): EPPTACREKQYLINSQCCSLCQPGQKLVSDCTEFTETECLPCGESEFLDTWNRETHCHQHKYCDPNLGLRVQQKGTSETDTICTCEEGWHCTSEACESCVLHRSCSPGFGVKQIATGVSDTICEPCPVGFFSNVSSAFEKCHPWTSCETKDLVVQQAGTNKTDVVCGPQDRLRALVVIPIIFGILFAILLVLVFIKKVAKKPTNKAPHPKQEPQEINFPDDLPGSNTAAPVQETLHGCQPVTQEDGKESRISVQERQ

B cells EC50, CD23 surface expression, no cross-linker: 3.17 ng/mL | B cells EC50, CD80 surface expression, no cross-linker: 7.34 ng/mL | B cells EC50, CD83 surface expression, no cross-linker: 4.28 ng/mL | B cells EC50, CD86 surface expression, no cross-linker: 4.04 ng/mL | B cells EC50, HLA-DR surface expression, no cross-linker: 8.15 ng/mL | DC EC50, CD80 surface expression, no cross-linker: 44.7 ng/mL | DC EC50, CD83 surface expression, no cross-linker: 245 ng/mL | DC EC50, CD86 surface expression, no cross-linker: 133 ng/mL | DC EC50, HLA-DR surface expression, no cross-linker: 242 ng/mL
Substance: CP-870,893 (antibody)
